Measurements from PMC12295887.

Assays:
[1] = target: actin purified from rabbit skeletal muscle (m. longissimus dorsi) (rabbit) (UniProt P68135)
[2] = target: actin purified from rabbit skeletal muscle (m. longissimus dorsi) (rabbit) (UniProt P68135); remark: listed apart in the source
[3] = target: actin purified from rabbit skeletal muscle (m. longissimus dorsi) (rabbit) (UniProt P68135); remark: listed apart in the source

Substance: PEVKII, the middle one-third segment of the human skeletal muscle titin PEVK domain (domain or fragment)
- initial rate of actin polymerization (pyrene assay, 4 µM actin), PEVKII 3.25-32.5 nM, against actin alone [1]: > 30 fold
- pyrene-actin fluorescence excitation and emission intensity after 800 s of polymerization, 4 µM actin (10% pyrene-labeled) with 5.5 nM PEVKII, against actin alone [2]: 16%
- peak pyrene fluorescence intensity (total amount of F-actin), 4 µM actin, PEVKII 3.25-32.5 nM, against actin alone [3]: 22%
- time to reach the peak pyrene fluorescence intensity, 4 µM actin, PEVKII 3.25-32.5 nM, against actin alone [3]: > 3 times faster
